Test results: patent publication US20050239074

Target: T1, human parathyroid hormone, P01270
T1 chain: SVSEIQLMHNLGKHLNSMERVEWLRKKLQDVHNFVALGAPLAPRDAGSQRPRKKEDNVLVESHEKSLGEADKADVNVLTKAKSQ

B1: Hansenula polymorpha yapsin1 (protein)
chain: DPQFVKLEASVLRGSTYKDSQKGAKPFMLEKRADDGSVTMELQNAQSFYQVEIEIGSDKQKVGVLIDTGSSDLWVMNSNNSYCSSSSTKKLKRDGPADALQKGRDLSDLYNFNSPNEDNNAKGFLGGWGDLTTVETATQDETQTALAAQATVDCSLYGTFNPSTSNSFHNNGTTFEISYADRTFARGTWGYDDVTFNGVTVNDLSLAVADETDSSTGVFGIGLRELETTYSGGGPQHYIYDNLPFKMVDQGLINRAAYSVYLNSTESSTASILFGAVDQSKYTGSLGLLPIINTAASYGYQKPLRLQITLSAITVSDSRGQQASIGSGAAAALLDTGTTLTYAPSEIVEKLAETLGFDYSSSVGAYVARCRDVDSYAVNFDFQGKVIEAPLSSFLIALQTNSGEVSSYCALGIFSSGDESFTLGDTFLRNAYFVADLEGYQIAIANVNLNPGAEQIEVISGNSIPSASSVSDYSNTWGASATALDTDRPTTLGSVTAVGDERVTSTKKVSSVKTSTSSGSGSTSESSTSSSHSSNGPRTVGFSLCAVLCAFLISILVV
degradation level of hPTH by the yapsin activity (culture supernatant incubated with hPTH for 2, 4 and 6 hours at 37 C, SDS-polyacrylamide gel): in the culture fluid of the wild type, it was already hard to observe hPTH remaining in the culture supernatant after 2 hour cultivation, while in the culture supernatant of hpyps1Δ mutant strain, a substantial amount of hPTH was observed
